The record followed here is the Immune Epitope Database (IEDB).

Bounds are passed on as bounds.

Test [1] concerns the target HLA-A*02:01. The experiment in a line: IEDB peptide-MHC binding, purified MHC/competitive/fluorescence; ≥ and ≤ were set here for values at or beyond the usual limits of such assays. The following applies: source organism: Zaire ebolavirus.
Test [2] addresses HLA-A*03:01. Described as above. Conditions: source organism: Zaire ebolavirus.
In a further test the target is HLA-A*24:02. The test is described as above. The following applies: source organism: Zaire ebolavirus.
A further test has as its target HLA-A*11:01. The test is described as above. Conditions: source organism: Zaire ebolavirus.
Test [3] addresses HLA-A*02:01. The experiment in a line: IEDB peptide-MHC binding, purified MHC/competitive/fluorescence; filed as Kd, often an IC50 or EC50 that approximates it; ≥ and ≤ were set here for values at or beyond the usual limits of such assays.
Test [4] deals with HLA-B*15:01. The description is as above.
In test [5] the target is HLA-A*03:01. The description is as above. Conditions: source organism: Giardia intestinalis ATCC 50581.
A further test has as its target HLA-B*57:01. The test is described as above.
The target in another test is HLA-B*39:01. Described as above.
The target in the next test is HLA-B*27:03. The description is as above.
The target of another test is HLA-B*46:01. The test is described as above.
The target in test [6] is HLA-A*02:12. The test is described as above. Conditions: source organism: Giardia intestinalis ATCC 50581.
The target of test [7] is HLA-A*26:01. The test is described as above.
Another test has as its target HLA-B*51:01. The description is as above.
For another test, the target named is HLA-B*18:01. The description is as above.
The target of test [8] is HLA-A*24:03. The test is described as above.
In the next test the target is HLA-A*69:01. The description is as above. Conditions: source organism: Zaire ebolavirus.
The target in the next test is HLA-B*15:17. The description is as above. The following applies: source organism: Zaire ebolavirus.
For a further test, the target named is HLA-A*31:01. The test is described as above. The following applies: source organism: Zaire ebolavirus.
Another test has as its target HLA-A*02:03. The experiment in a line: IEDB peptide-MHC binding, purified MHC/direct/fluorescence; filed as Kd, often an IC50 or EC50 that approximates it; ≥ and ≤ were set here for values at or beyond the usual limits of such assays. The following applies: source organism: Zaire ebolavirus.
A further test addresses HLA-A*02:11. The description is as above. The following applies: source organism: Zaire ebolavirus.
The target of a further test is HLA-A*02:16. The test is described as above. The following applies: source organism: Zaire ebolavirus.
Test [9] addresses HLA-A*03:01. The test is described as above.
In a further test the target is HLA-A*02:19. The test is described as above. Conditions: source organism: Zaire ebolavirus.
The target in test [10] is HLA-A*02:12. Described as above. The following applies: source organism: Zaire ebolavirus.
Another test addresses HLA-A*29:02. Described as above. Conditions: source organism: Zaire ebolavirus.
For a further test, the target named is HLA-A*68:02. Described as above. The following applies: source organism: Zaire ebolavirus.
The target in test [11] is HLA-A*24:03. Described as above. Conditions: source organism: Zaire ebolavirus.
For test [12], the target named is HLA-A*26:01. Described as above. The following applies: source organism: Zaire ebolavirus.
The target in another test is HLA-B*07:02. The experiment in a line: IEDB peptide-MHC binding, purified MHC/competitive/fluorescence; ≥ and ≤ were set here for values at or beyond the usual limits of such assays. The following applies: source organism: Zaire ebolavirus.
In test [13] the target is HLA-B*15:01. Described as above. Conditions: source organism: Zaire ebolavirus.
For the next test, the target named is HLA-B*08:01. The test is described as above. Conditions: source organism: Zaire ebolavirus.
Setting [14] is: source organism: Giardia intestinalis ATCC 50581.
Where [15] appears, read: source organism: Zaire ebolavirus.

In the case of FLLMLCLHH, the results for the IC50 with HLA-A*02:01 [1] and with HLA-A*03:01 [2] were 12.2 µM and not below 129 µM, respectively.

Regarding FYWPVMNHK, the IC50 (in general, the concentration that inhibits the measured activity by half) amounted to 9.75 µM with HLA-A*24:02, 4.71 µM in the test with HLA-A*03:01 [2] and 4.52 µM with HLA-A*11:01.

Consider GLYLYRFHV, for which the dissociation constant Kd (usually the free concentration of one partner at which half of the binding sites on the other are occupied at equilibrium, for simple one-to-one binding) with HLA-A*02:01 [3] (setting [14]) was 0.0014 µM; with HLA-B*15:01 [4] (setting [14]), not below 20 µM; with HLA-A*03:01 [5], not below 20 µM; with HLA-B*57:01 (setting [14]), not below 20 µM; in the test with HLA-B*39:01 (setting [14]), not below 20 µM; with HLA-B*27:03 (setting [14]), not below 20 µM. For the same sequence, the dissociation constant Kd is not below 20 µM in the test with HLA-B*46:01 (setting [14]); 0.0055 µM with HLA-A*02:12 [6]; not below 20 µM with HLA-A*26:01 [7] (setting [14]); not below 20 µM in the test with HLA-B*51:01 (setting [14]); not below 20 µM in the test with HLA-B*18:01 (setting [14]); not below 20 µM with HLA-A*24:03 [8] (setting [14]).

LYIEFTDNM registered a Kd in the test with HLA-A*24:03 [8] (source organism: Escherichia coli 536) not above 0.001 µM.

Regarding RVPTVFHKK, the Kd with HLA-A*69:01, with HLA-A*02:01 [3] (setting [15]), with HLA-B*15:01 [4] (setting [15]), with HLA-B*15:17, in the test with HLA-B*57:01 (setting [15]) and in the test with HLA-B*39:01 (setting [15]) was not below 20 µM throughout. In addition, the Kd in the test with HLA-B*27:03 (setting [15]) is not below 20 µM; with HLA-B*46:01 (setting [15]), not below 20 µM; with HLA-A*26:01 [7] (setting [15]) it was not below 20 µM; with HLA-B*51:01 (setting [15]) it was not below 20 µM; with HLA-A*31:01, 0.0268 µM; with HLA-B*18:01 (setting [15]), not below 20 µM. Besides, the dissociation constant Kd with HLA-A*02:03 was not below 20 µM; with HLA-A*02:11 it was not below 20 µM; in the test with HLA-A*02:16 it was not below 20 µM; in the test with HLA-A*03:01 [9] (source organism: Sudan ebolavirus - Uganda (2000)) it was 0.241 µM; with HLA-A*02:19, not below 20 µM; with HLA-A*02:12 [10], not below 20 µM. The Kd in the test with HLA-A*29:02, with HLA-A*68:02 and with HLA-A*24:03 [11] was not below 20 µM in each case.

As for TVIYRGTTF, the Kd with HLA-A*69:01 is not below 20 µM; with HLA-A*02:01 [3] (setting [15]), not below 20 µM; with HLA-B*15:01 [4] (setting [15]), 0.0533 µM; in the test with HLA-B*57:01 (setting [15]), not below 20 µM; with HLA-B*39:01 (setting [15]), not below 20 µM; with HLA-B*27:03 (setting [15]), not below 20 µM. Moreover, the dissociation constant Kd with HLA-B*46:01 (setting [15]), with HLA-B*51:01 (setting [15]), with HLA-B*18:01 (setting [15]), with HLA-A*02:03, in the test with HLA-A*02:11 and in the test with HLA-A*02:16 was not below 20 µM in each case. Further, the dissociation constant Kd in the test with HLA-A*03:01 [9] (setting [15]) was not below 20 µM; in the test with HLA-A*02:19 it was not below 20 µM; in the test with HLA-A*02:12 [10], not below 20 µM; in the test with HLA-A*29:02, not below 20 µM; in the test with HLA-A*26:01 [12], 0.838 µM; in the test with HLA-A*68:02, not below 20 µM. The sequence further yielded a Kd in the test with HLA-A*24:03 [11] not below 20 µM. Moreover, the half-inhibitory concentration (IC50) amounted to 1.26 µM with HLA-A*24:02, 14.3 µM in the test with HLA-B*07:02, 4.71 µM with HLA-B*15:01 [13] and 45.4 µM with HLA-B*08:01.

In the case of VYRDHSEKK, the IC50 was found to be 29.2 µM in the test with HLA-A*24:02, 25.3 µM with HLA-A*03:01 [2] and 33.2 µM in the test with HLA-A*11:01.
